No end group written: not given here. *: point of attachment. 125I = [125I]*
Target: cell surface binding site for EMAP II N-terminal peptides on human mononuclear phagocytes (MPs); ≈73 kDa MP surface polypeptide
Experiment: radioligand binding on human MPs, 4 C, one-site model

- Kd: 0.19 nM
- N (molecules of peptide bound per cell) (molecules of peptide bound per cell): 8300
Binder: RIGRIVTAKY(125I) [^125I-…]

Reference: patent US20020160957A1
